T1: PACAP-R2 (Homo sapiens, UniProt P32241)
T1 construct: expressed in transfected cells; host or cells: CHO cells
T1 sequence (P32241 31-457): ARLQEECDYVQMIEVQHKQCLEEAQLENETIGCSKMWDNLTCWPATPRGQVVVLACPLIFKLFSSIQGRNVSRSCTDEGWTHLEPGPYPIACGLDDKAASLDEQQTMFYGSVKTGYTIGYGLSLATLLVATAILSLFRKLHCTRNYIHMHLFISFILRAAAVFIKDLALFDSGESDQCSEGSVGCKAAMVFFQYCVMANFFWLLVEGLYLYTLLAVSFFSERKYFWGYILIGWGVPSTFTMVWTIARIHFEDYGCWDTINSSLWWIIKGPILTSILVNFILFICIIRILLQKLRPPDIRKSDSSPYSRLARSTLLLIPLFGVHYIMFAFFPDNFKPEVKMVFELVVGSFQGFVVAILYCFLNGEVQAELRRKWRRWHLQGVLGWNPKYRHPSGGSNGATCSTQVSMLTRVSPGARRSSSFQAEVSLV

T2: PACAP-R3 (human, UniProt P41587 24-438)
T2 sequence (looked up): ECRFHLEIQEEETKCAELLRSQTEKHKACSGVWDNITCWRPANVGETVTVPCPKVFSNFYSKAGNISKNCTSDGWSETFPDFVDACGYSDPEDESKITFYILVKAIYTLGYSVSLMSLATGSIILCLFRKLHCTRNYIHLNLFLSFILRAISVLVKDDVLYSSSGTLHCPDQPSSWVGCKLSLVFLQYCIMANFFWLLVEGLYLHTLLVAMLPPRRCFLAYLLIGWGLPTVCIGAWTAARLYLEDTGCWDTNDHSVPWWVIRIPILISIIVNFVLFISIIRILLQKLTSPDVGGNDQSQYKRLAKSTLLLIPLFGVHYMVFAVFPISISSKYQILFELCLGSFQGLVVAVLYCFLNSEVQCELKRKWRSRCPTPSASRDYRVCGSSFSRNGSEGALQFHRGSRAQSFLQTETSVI


target: T1, PACAP-R2; assay: Cyclic AMP SPA on CHO cells transfected with PACAP-R2; format: cell-based; conditions: cAMP SPA, concentration at which 50% of maximum PACAP27 activity is achieved, NA = no detectable activities, read-out: R2 EC50
Experimental: CHO cells expressing the PACAP R3 were plated in 96-well plates (Costar) at 8×10^4 cell/well and grown at 37 C. for 24 hours in α MEM+nucleosides+glutamine (Giobco BRL), 10% FBS, 100 μg/ml Pen/Strep, 0.3 mg/ml glutamine, 1 mM HEPES, 0.5 mg/ml Geneticin (Gibco BRL). The media was removed and the plates were washed with PBS. The cells were incubated with a peptide, in Hepes-PBS-BSA with 0.4 mg/mlSoybean Trypsin Inhibitor, 0.5 mg/ml Bacitracin, 100 uM IBMX, for 15 min at 37 C. Cyclic AMP in the cell extracts was quantitated using the cAMP SPA direct screening assay system (Amersham Pharmacia Biotech Inc, Piscataway, N.J.,). The peptides shown in Table 3 were assayed for cAMP activity.
EC50 is defined as the concentration of the polypeptide at which 50% of maximum PACAP27 activity is achieved. “NA” denotes no detectable activities. “R3 Selectivity” is derived from the ratio of EC50 at R2 versus EC50 at R3.

In order of falling EC50:
1. CC[C@H](C)[C@H](NC(=O)[C@H](CO)NC(=O)[C@H](CC(N)=O)NC(=O)[C@H](CC(C)C)NC(=O)[C@H](Cc1ccc(O)cc1)NC(=O)[C@H](CCCCN)NC(=O)[C@H](CCCCN)NC(=O)[C@H](C)NC(=O)[C@H](C)NC(=O)[C@H](CCSC)NC(=O)[C@H](CCC(N)=O)NC(=O)[C@H](CCCCN)NC(=O)[C@H](CCCNC(=N)N)NC(=O)[C@H](CC(C)C)NC(=O)[C@H](CCCNC(=N)N)NC(=O)[C@@H](NC(=O)[C@H](Cc1ccc(O)cc1)NC(=O)[C@H](CC(N)=O)NC(=O)[C@H](CC(=O)O)NC(=O)[C@@H](NC(=O)[C@H](Cc1ccccc1)NC(=O)[C@@H](NC(=O)[C@H](C)NC(=O)[C@H](CC(=O)O)NC(=O)[C@H](CO)NC(=O)[C@@H](N)Cc1c[nH]cn1)C(C)C)[C@@H](C)O)[C@@H](C)O)C(=O)N[C@@H](Cc1ccc(O)cc1)C(=O)N[C@@H](CC(N)=O)C(=O)N[C@@H](CCCCN)C(=O)N[C@@H](CCCNC(=N)N)C(=O)O [Peptide R3P133]  8 nM
2. CC[C@H](C)[C@H](NC(=O)[C@H](CO)NC(=O)[C@H](CC(N)=O)NC(=O)[C@H](CC(C)C)NC(=O)[C@H](Cc1ccc(O)cc1)NC(=O)[C@H](CCCCN)NC(=O)[C@H](CCCCN)NC(=O)[C@H](C)NC(=O)[C@H](C)NC(=O)[C@H](CCSC)NC(=O)[C@H](CCC(N)=O)NC(=O)[C@H](CCCCN)NC(=O)[C@H](CCCNC(=N)N)NC(=O)[C@H](CC(C)C)NC(=O)[C@H](CCCNC(=N)N)NC(=O)[C@@H](NC(=O)[C@H](Cc1ccc(O)cc1)NC(=O)[C@H](CC(N)=O)NC(=O)[C@H](CC(=O)O)NC(=O)[C@@H](NC(=O)[C@H](Cc1ccccc1)NC(=O)[C@@H](NC(=O)[C@H](C)NC(=O)[C@H](CC(=O)O)NC(=O)[C@H](CO)NC(=O)[C@@H](N)Cc1c[nH]cn1)C(C)C)[C@@H](C)O)[C@@H](C)O)C(=O)N[C@H](C(=O)N[C@@H](CC(N)=O)C(=O)N[C@@H](CCCCN)C(=O)N[C@@H](CCCNC(=N)N)C(=O)O)[C@@H](C)CC [Peptide R3P123]  5 nM
3. CC[C@H](C)[C@H](NC(=O)[C@H](CO)NC(=O)[C@H](CC(N)=O)NC(=O)[C@H](CC(C)C)NC(=O)[C@H](Cc1ccc(O)cc1)NC(=O)[C@H](CCCCN)NC(=O)[C@H](CCCCN)NC(=O)[C@@H](NC(=O)[C@H](C)NC(=O)[C@H](CCSC)NC(=O)[C@H](CCC(N)=O)NC(=O)[C@H](CCCCN)NC(=O)[C@H](CCCNC(=N)N)NC(=O)[C@H](CC(C)C)NC(=O)[C@H](CCCNC(=N)N)NC(=O)[C@@H](NC(=O)[C@H](Cc1ccc(O)cc1)NC(=O)[C@H](CC(N)=O)NC(=O)[C@H](CC(=O)O)NC(=O)[C@@H](NC(=O)[C@H](Cc1ccccc1)NC(=O)[C@@H](NC(=O)[C@H](C)NC(=O)[C@H](CC(=O)O)NC(=O)[C@H](CO)NC(=O)[C@@H](N)Cc1c[nH]cn1)C(C)C)[C@@H](C)O)[C@@H](C)O)[C@@H](C)O)C(=O)N[C@@H](CCCCN)C(=O)N[C@@H](CC(N)=O)C(=O)N[C@@H](CCCCN)C(=O)N[C@@H](CCCNC(=N)N)C(=O)O [Peptide R3P112]  4 nM
4. CC[C@H](C)[C@H](NC(=O)[C@H](CO)NC(=O)[C@H](CC(N)=O)NC(=O)[C@H](CC(C)C)NC(=O)[C@H](Cc1ccc(O)cc1)NC(=O)[C@H](CCCCN)NC(=O)[C@H](CCCCN)NC(=O)[C@@H](NC(=O)[C@H](C)NC(=O)[C@H](CCSC)NC(=O)[C@H](CCC(N)=O)NC(=O)[C@H](CCCCN)NC(=O)[C@H](CCCNC(=N)N)NC(=O)[C@H](CC(C)C)NC(=O)[C@H](CCCNC(=N)N)NC(=O)[C@@H](NC(=O)[C@H](Cc1ccc(O)cc1)NC(=O)[C@H](CC(N)=O)NC(=O)[C@H](CC(=O)O)NC(=O)[C@@H](NC(=O)[C@H](Cc1ccccc1)NC(=O)[C@@H](NC(=O)[C@H](C)NC(=O)[C@H](CC(=O)O)NC(=O)[C@H](CO)NC(=O)[C@@H](N)Cc1c[nH]cn1)C(C)C)[C@@H](C)O)[C@@H](C)O)C(C)C)C(=O)N[C@@H](CCCCN)C(=O)N[C@@H](CC(N)=O)C(=O)N[C@@H](CCCCN)C(=O)N[C@@H](CCCNC(=N)N)C(=O)O [Peptide R3P113]  3 nM
5. CC[C@H](C)[C@H](NC(=O)[C@H](CO)NC(=O)[C@H](CC(N)=O)NC(=O)[C@H](CC(C)C)NC(=O)[C@H](Cc1ccc(O)cc1)NC(=O)[C@H](CCCCN)NC(=O)[C@H](CCCCN)NC(=O)[C@H](C)NC(=O)[C@H](C)NC(=O)[C@H](CCSC)NC(=O)[C@H](CCC(N)=O)NC(=O)[C@H](CCCCN)NC(=O)[C@H](CCCNC(=N)N)NC(=O)[C@H](CC(C)C)NC(=O)[C@H](CCCNC(=N)N)NC(=O)[C@@H](NC(=O)[C@H](Cc1ccc(O)cc1)NC(=O)[C@H](CC(N)=O)NC(=O)[C@H](CC(=O)O)NC(=O)[C@@H](NC(=O)[C@H](Cc1ccccc1)NC(=O)[C@@H](NC(=O)[C@H](C)NC(=O)[C@H](CC(=O)O)NC(=O)[C@H](CO)NC(=O)[C@@H](N)Cc1c[nH]cn1)C(C)C)[C@@H](C)O)[C@@H](C)O)C(=O)N[C@@H](CCSC)C(=O)N[C@@H](CC(N)=O)C(=O)N[C@@H](CCCCN)C(=O)N[C@@H](CCCNC(=N)N)C(=O)O [Peptide R3P124]  3 nM
6. CC[C@H](C)[C@H](NC(=O)[C@H](CO)NC(=O)[C@H](CC(N)=O)NC(=O)[C@H](CC(C)C)NC(=O)[C@H](Cc1ccc(O)cc1)NC(=O)[C@H](CCCCN)NC(=O)[C@H](CCCCN)NC(=O)[C@H](CCSC)NC(=O)[C@H](C)NC(=O)[C@H](CCSC)NC(=O)[C@H](CCC(N)=O)NC(=O)[C@H](CCCCN)NC(=O)[C@H](CCCNC(=N)N)NC(=O)[C@H](CC(C)C)NC(=O)[C@H](CCCNC(=N)N)NC(=O)[C@@H](NC(=O)[C@H](Cc1ccc(O)cc1)NC(=O)[C@H](CC(N)=O)NC(=O)[C@H](CC(=O)O)NC(=O)[C@@H](NC(=O)[C@H](Cc1ccccc1)NC(=O)[C@@H](NC(=O)[C@H](C)NC(=O)[C@H](CC(=O)O)NC(=O)[C@H](CO)NC(=O)[C@@H](N)Cc1c[nH]cn1)C(C)C)[C@@H](C)O)[C@@H](C)O)C(=O)N[C@@H](CCCCN)C(=O)N[C@@H](CC(N)=O)C(=O)N[C@@H](CCCCN)C(=O)N[C@@H](CCCNC(=N)N)C(=O)O [Peptide R3P106]  2 nM

target: T2, PACAP-R3; assay: cell-based or functional assay; conditions: not given

In order of falling “R3 EC50” value:
1. HSDAVFTDNYTRLRKQLAAKKYLNDIKKNQ [R3P35]  2.6 nM
2. HSDAVFTDNYTRLRKQLAAKKYLNDIKKQ [R3P34]  1.4 nM
3. HSDAVFTDNYTRLRKQLAAKKYLNDIKK [R3P33]  0.5 nM
4. HSDAVFTDNYTRLRKQLAAKKYLNDIKKKRY [R3P36]  0.4 nM
5. HSDAVFTDNYTRLRKQLAAKKYLNDIKKG [R3P32]  0.4 nM
6. HSDAVFTDNYTRLRKQMAVKKYLNSIKK [R3P41]  0.08 nM
7. HSDAVFTDNYTRLRKQMAVKKYLNSILK [R3P43]  0.08 nM
8. HSDAVFTDNYTRLRKQMAVKKYLNSIKN [R3P42]  0.03 nM

Compared with HSDAVFTDNYTRLRKQMAVKKYLNSIKK [R3P41], HSDAVFTDNYTRLRKQMAVKKYLNSILK [R3P43] is lower in “R3 Selectivity” value: 100 for the first, 10 for the second.

Going from HSDAVFTDNYTRLRKQLAAKKYLNDIKKQ [R3P34] to HSDAVFTDNYTRLRKQMAVKKYLNSIKN [R3P42], the “R3 Selectivity” value falls from > 70 to 10.

HSDAVFTDNYTRLRKQLAAKKYLNDIKKNQ [R3P35] and HSDAVFTDNYTRLRKQLAAKKYLNDIKKKRY [R3P36] cannot be ordered by “R3 Selectivity” value: > 40 for the first, > 200 for the second.

Going from HSDAVFTDNYTRLRKQLAAKKYLNDIKKG [R3P32] to HSDAVFTDNYTRLRKQLAAKKYLNDIKK [R3P33], the “R3 Selectivity” value rises from 200 to > 200.

Reference: patent US6972319B1, “Pituitary adenylate cyclase activating peptide (PACAP)receptor 3 (R3) agonists and their pharmacological methods of use” (priority 1999, dated 2005)
